Laboratory results: paper PMC3674922, “Single-molecule photobleaching reveals increased MET receptor dimerization upon ligand binding in intact cells” (BMC Biophysics, 2013)

Target: T1, soluble MET ectodomain (MET928) (human, UniProt P08581 25-932)
T1 construct: MET receptor tyrosine kinase, human, soluble complete ectodomain (MET928)
Test: fluorescence correlation spectroscopy (FCS); in solution; 1 nM InlB-ATTO647N, MET928 titrated from 0.01 nM to 1-2 uM; PBS with 0.05% Tween-20; at least 3 h at room temperature; objective at 20°C; diffusion time fitted to a 1:1 binding model
Conditions: both partners purified

T1 sequence (P08581 25-932): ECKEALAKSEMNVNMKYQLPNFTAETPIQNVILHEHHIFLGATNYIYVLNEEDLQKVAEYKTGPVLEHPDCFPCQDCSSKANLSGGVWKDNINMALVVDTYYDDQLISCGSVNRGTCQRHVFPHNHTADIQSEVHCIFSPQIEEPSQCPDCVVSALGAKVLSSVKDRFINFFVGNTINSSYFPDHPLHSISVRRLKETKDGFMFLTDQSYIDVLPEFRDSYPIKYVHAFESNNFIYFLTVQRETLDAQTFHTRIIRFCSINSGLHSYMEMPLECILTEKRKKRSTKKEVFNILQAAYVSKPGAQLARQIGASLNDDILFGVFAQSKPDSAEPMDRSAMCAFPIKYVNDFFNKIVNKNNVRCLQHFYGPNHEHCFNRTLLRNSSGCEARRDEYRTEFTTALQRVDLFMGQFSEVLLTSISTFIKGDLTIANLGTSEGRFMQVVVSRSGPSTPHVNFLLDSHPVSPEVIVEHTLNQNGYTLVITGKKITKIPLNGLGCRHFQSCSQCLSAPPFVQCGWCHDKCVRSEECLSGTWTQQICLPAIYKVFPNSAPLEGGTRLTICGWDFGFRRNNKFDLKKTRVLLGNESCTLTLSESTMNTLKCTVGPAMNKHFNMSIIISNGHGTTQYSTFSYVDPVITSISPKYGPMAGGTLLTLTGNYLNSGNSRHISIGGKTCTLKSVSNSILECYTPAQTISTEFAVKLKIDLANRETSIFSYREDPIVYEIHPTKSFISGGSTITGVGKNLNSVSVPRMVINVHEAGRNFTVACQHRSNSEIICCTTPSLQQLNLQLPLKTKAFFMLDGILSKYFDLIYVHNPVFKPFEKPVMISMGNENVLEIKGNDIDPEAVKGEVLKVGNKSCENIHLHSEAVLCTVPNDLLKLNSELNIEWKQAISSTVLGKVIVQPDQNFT

B1: InlB-ATTO647N (InlB321 with C242A and K280C, labelled with ATTO647N at C280) (domain or fragment)
chain: ETITVPTPIKQIFSDDAFAETIKDNLKKKSVTDAVTQNELNSIDQIIANNSDIKSVQGIQYLPNVTKLFLNGNKLTDIKPLANLKNLGWLFLDENKVKDLSSLKDLKKLKSLSLEHNGISDINGLVHLPQLESLYLGNNKITDITVLSRLTKLDTLSLEDNQISDIVPLAGLTKLQNLYLSKNHISDLRALAGLKNLDVLELFSQEALNKPINHQSNLVVPNTVKNTDGSLVTPEIISDDGDYECPNVKWHLPEFTNEVSFIFYQPVTIGKAKARFHGRVTQPLKE
modifications: ATTO647N attached to C280 by maleimide coupling (degree of labeling 0.5)
notes: internalin B (InlB) of Listeria monocytogenes, N-terminal internalin domain, amino acids 36-321 (InlB321); either way residue 280 is cysteine; also called dye-labeled InlB321; internalin domain of InlB
Kd: 5 ± 0.8 nM
